Target: 인간 IL-17A (human IL-17A, R&D system) (human, UniProt Q16552 20-155, limits assumed)
Test: cell-based or functional assay

Sequence of 인간 IL-17A (human IL-17A, R&D system) (Q16552 20-155 limits assumed): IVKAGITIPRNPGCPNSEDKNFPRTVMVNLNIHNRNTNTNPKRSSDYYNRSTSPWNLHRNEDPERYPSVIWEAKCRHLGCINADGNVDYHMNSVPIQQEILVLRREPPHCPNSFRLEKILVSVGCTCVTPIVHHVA

Row | Molecule | IC50 of inhibition of IL-17A-dependent IL-6 secretion, HeLa cells | fold better IC50 than secukinumab in-house, HeLa IL-6 assay
1 | 세쿠키누맙 (secukinumab), made in-house (antibody) | 4.16 nM | 
2 | 7H3C11FW (antibody, V domains shown) VH: QVQLVESGGGVVQPGRSLRLSCAASGFAFGSYTMHWVRQAPGKGLEWVTLISFDGRSKLYGDSVKGRFTISRDNSKNSLYLQMNSLRAEDTAVYYCARGSVRGEAAFDLWGQGTLVTVSS VL: SYELTQPPSVSVSPGQTASITCSGDNLRTKYVSWYQQKPGQSPVLVIYQDTRRPSGIPERFSGSNSGNTATLTISGTQAMDEADYYCMTWDVDTTSMIFGGGTKLTVL | 2.88 nM | ~1.4 fold

Reference: patent KR20190053464A (dated 2019)
